Residue numbers refer to the chain shown, from its start.

The text below walks through data of publication PMC3962013 (Cell, 2014).

Assay [1] addresses T1, C. elegans SYG-2 ectodomain (C. elegans, UniProt Q9U3P2 20-1084).
T1 sequence (looked up): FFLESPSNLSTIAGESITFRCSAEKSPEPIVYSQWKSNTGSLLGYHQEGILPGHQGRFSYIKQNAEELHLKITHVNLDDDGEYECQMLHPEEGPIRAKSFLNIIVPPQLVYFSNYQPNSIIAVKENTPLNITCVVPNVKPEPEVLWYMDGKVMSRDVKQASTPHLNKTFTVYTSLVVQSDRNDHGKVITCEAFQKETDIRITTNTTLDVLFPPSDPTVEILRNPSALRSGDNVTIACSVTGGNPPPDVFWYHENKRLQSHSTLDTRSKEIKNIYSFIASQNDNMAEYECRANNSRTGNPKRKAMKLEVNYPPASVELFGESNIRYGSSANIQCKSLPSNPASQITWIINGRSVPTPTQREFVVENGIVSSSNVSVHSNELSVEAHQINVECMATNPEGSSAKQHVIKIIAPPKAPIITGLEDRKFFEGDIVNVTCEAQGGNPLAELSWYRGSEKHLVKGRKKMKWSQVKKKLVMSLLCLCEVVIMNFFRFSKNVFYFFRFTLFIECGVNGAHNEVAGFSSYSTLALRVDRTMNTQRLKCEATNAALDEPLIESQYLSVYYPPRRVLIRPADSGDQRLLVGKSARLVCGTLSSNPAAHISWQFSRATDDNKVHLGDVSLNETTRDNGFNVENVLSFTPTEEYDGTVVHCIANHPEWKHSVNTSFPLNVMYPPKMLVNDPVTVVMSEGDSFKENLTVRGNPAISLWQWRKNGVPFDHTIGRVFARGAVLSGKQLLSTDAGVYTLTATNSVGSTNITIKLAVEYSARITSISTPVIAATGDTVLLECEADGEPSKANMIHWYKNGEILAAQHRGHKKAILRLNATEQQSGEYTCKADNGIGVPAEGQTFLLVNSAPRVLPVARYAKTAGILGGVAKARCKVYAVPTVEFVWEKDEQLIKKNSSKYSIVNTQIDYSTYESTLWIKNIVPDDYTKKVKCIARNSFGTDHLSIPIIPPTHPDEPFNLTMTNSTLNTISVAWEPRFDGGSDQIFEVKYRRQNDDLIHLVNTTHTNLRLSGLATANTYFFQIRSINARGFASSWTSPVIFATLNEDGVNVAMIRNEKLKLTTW
Put plainly: ITC + SPR.

The target in assay [2] is wild type SYG-2 (SPR series with mutants, construct not stated) (C. elegans). The assay is described as follows: SPR. (In general: SPR reads the build-up and loss of mass on a sensor chip optically.)

B1: C. elegans SYG-1 ectodomain (domain or fragment, UniProt B1Q236 19-551, looked up)
chain: QQLQQRIVEAPKDTLAAVGETAILTCRVEHQQGPVQWMKDDFGLGTDRDKPLPGNKRYRMVGSAANGEYNLEISNVTLFDDDDFACQISESDHAKAVVSSKAKLTVLVRPTPPKIVKSHHSLKAIAGDPITQSCLSRKGKPPPTIGWAIASDEHGKHIVSWLGESRSKFGGIHAKPEISQETVIAHVNETTQVEEGGNNSREDSSIYSIMSNLSFIPRPEDDHKYLICISQHMTFPNKIEVDSVKLSLRYAPQINLTVASKLPLRENGSALLACNVNAKPLDNVKISWYKGNQKLRETGDTLTFETLKMEDHNRDIFCEATNEIGTTRGSIKLNVAFGARIMSTSQDKEVNEGDNAFFHCATLANPAPAIFWTRGDSDEIIGHGENLTLENVRTWQQGNYNCTATVEGFRKQILSHYLHIRGPPTVSMKDEVSASLDEATEIICEISGRPKTNNVRWTVNGKEINFNNGRITVHQYPKPYGKESILKIKDLKEEDFGVYNCSANNGLGFDNRGTLLKKRNILDWIVITAKFDR
Usually Kd stands for a measure of binding affinity in units of concentration. B1: the Kd in assay [1] was about 600 nM.

B2: SYG-1 Q54 mutant (domain or fragment)
chain: B1 chain with Q36A
With B2, the “fold weaker affinity than wild-type SYG-1” value in assay [2] turned out to be 7 fold.
